Results published in patent publication US20240327514A1 (Janssen / Centocor, published 2024).

Molecular target: T1, human CD123 (human, UniProt P26951 19-378)
T1 construct: whole, on cells; Target presented on CD123+ AML cell lines; also called CD123 on CD123+ AML cells
Experiment: flow cytometry on tumor cell lines, detection with mouse anti-human IgG4
Protocol: All tumor cells were centrifuged, washed twice with Dulbecco's phosphate-buffered saline (DPBS) and 1×10^4 cells were added to the center of each well of a 96 well U bottom plate along with fragment crystallizable (Fc) block (human IgG1 fragment) which was added at 2 mg/mL for 10 minutes. Serially diluted bispecific antibodies were added to the appropriate wells. Plates were incubated in the dark at 37° C. with 5% CO₂ for 4 hours. The cells were then washed with DPBS and binding of the bispecific antibody was detected by staining with mouse anti-human IgG4 (Southern Biotech, clone HP6025, catalog #9200-09) and LIVE/DEAD (L/D; Invitrogen, catalog #L34976) for 30 minutes. Finally, cells were washed, resuspended in stain buffer, and analyzed on the FACSCanto II flow cytometer (BD Biosciences). Geometric mean fluorescence intensity (gMFI) was plotted in Prism version 7 (GraphPad). The X axis was log transformed and a 4 parameter non-linear curve fit was applied.

T1 sequence (P26951 19-378): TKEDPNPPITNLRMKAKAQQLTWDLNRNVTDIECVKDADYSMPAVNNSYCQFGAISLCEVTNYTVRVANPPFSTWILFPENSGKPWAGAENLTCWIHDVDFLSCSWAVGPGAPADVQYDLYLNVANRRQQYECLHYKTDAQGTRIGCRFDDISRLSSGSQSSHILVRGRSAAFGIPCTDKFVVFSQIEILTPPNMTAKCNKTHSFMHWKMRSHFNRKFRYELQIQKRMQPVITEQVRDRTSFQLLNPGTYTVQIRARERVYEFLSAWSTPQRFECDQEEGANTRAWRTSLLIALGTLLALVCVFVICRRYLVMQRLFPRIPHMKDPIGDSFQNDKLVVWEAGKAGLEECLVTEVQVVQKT

B1: CD123×CD3 bispecific antibody (bispecific antibody, human IgG4 S228P, kappa, lambda, F234A L235A)
heavy 1: not shown
light 1: EIVLTQSPGTLSLSPGERATLSCRASQSVSSSYLAWYQQKPGQAPRLLIYGASSRATGIPDRFSGSGSGTDFTLTISRLEPEDFAVYYCQQDYGFPWTFGQGTKVEIKRTVAAPSVFIFPPSDEQLKSGTASVVCLLNNFYPREAKVQWKVDNALQSGNSQESVTEQDSKDSTYSLSSTLTLSKADYEKHKVYACEVTHQGLSSPVTKSFNRGEC
heavy 2: EVQLVESGGGLVQPGGSLKLSCAASGFTFNTYAMNWVRQASGKGLEWVGRIRSKYNAYATYYAASVKGRFTISRDDSKNTAYLQMNSLKTEDTAVYYCTRHGNFGNSYVSWFAYWGQGTLVTVSSASTKGPSVFPLAPCSRSTSESTAALGCLVKDYFPEPVTVSWNSGALTSGVHTFPAVLQSSGLYSLSSVVTVPSSSLGTKTYTCNVDHKPSNTKVDKRVESKYGPPCPPCPAPEAAGGPSVFLFPPKPKDTLMISRTPEVTCVVVDVSQEDPEVQFNWYVDGVEVHNAKTKPREEQFNSTYRVVSVLTVLHQDWLNGKEYKCKVSNKGLPSSIEKTISKAKGQPREPQVYTLPPSQEEMTKNQVSLTCLVKGFYPSDIAVEWESNGQPENNYKTTPPVLDSDGSFLLYSKLTVDKSRWQEGNVFSCSVMHEALHNHYTQKSLSLSLGK
light 2: QAVVTQEPSLTVSPGGTVTLTCRSSTGAVTTSNYANWVQQKPGQAPRGLIGGTNKRAPGTPARFSGSLLGGKAALTLSGAQPEDEAEYYCALWYSNLWVFGGGTKLTVLGQPKAAPSVTLFPPSSEELQANKATLVCLISDFYPGAVTVAWKADSSPVKAGVETTTPSKQSNNKYAASSYLSLTPEQWKSHRSYSCQVTHEGSTVEKTVAPTECS
notes: also called CD123xCD3 DuoBody antibody
Does B1 bind?
Result: binds
